B1: HDV Ribozyme (parent)
chain: GGCCGGCAUGGUCCCAGCCUCCUCGCUGGCGCCGGCUGGGCAACAUUCCGAGGGGACCGUCCCCUCGGUAAUGGCGAAUGGGACCCA

Variants of: B1
Assay: self-cleavage, relative activity (ratio to wild type); higher = more cleavage; co-transcriptional

First: C32U G38U
Second: C33U A83G
The self-cleavage of the first is lower: 0.205 for the first, 0.511 for the second.

Compared with C33U A83U, C33A G81U is lower in self-cleavage: 0.415 for the first, 0.0978 for the second.

Going from C33G G50C to C33G G50A, the self-cleavage falls from 0.246 to 0.148.

First: C32U G80U
Second: C32U C64G
The self-cleavage of the first is lower: 0.145 for the first, 0.875 for the second.

First: C33G G34A
Second: C33U C48A
The self-cleavage of the first is lower: 0.0831 for the first, 0.631 for the second.

First: C33G A71U
Second: C32G G67C
The self-cleavage of the first is higher: 0.213 for the first, 0.149 for the second.

Going from C32U G82U to C33G C66A, the self-cleavage falls from 0.256 to 0.198.

First: C33U C44A
Second: C33A C85A
The self-cleavage of the first is higher: 0.499 for the first, 0.18 for the second.

Compared with C32U U79G, C33G U79C is lower in self-cleavage: 0.504 for the first, 0.0875 for the second.

First: C33G U79A
Second: C33G A78C
The self-cleavage of the first is higher: 0.0755 for the first, 0 for the second.

Compared with C33A G34C, C33G A51U is lower in self-cleavage: 0.108 for the first, 0.0811 for the second.

First: C33G A51C
Second: C32U C66U
The self-cleavage of the first is lower: 0.246 for the first, 0.926 for the second.

Going from C32U G68C to C32U A77C, the self-cleavage falls from 0.803 to 0.162.

Going from C33A U46G to C33U G53U, the self-cleavage rises from 0.0615 to 0.916.

Compared with C33U G74U, C33U G74C is lower in self-cleavage: 0.41 for the first, 0.0339 for the second.

First: C32U G40A
Second: C33A G67U
The self-cleavage of the first is higher: 0.987 for the first, 0.253 for the second.

First: C33U U46A
Second: C33G C62A
The self-cleavage of the first is higher: 0.434 for the first, 0.225 for the second.

Going from C32G U65A to C33U C66U, the self-cleavage rises from 0.0545 to 0.774.

First: C33G G82U
Second: C33U G67A
The self-cleavage of the first is lower: 0 for the first, 0.749 for the second.

Compared with C33U C49G, C32U C48A is higher in self-cleavage: 0.855 for the first, 1.04 for the second.

Going from C32U C48G to C32U C86A, the self-cleavage falls from 1.04 to 0.69.

Going from C32U G73A to C32U G53A, the self-cleavage rises from 0.364 to 1.01.

Compared with C33G U47G, C32G U37C is higher in self-cleavage: 0.0723 for the first, 0.264 for the second.

Going from C32G U79G to C32G U79A, the self-cleavage rises from 0.172 to 0.19.

Going from C32U G50U to C32U G50A, the self-cleavage rises from 0.844 to 0.862.

First: C32U G81C
Second: C32U U60A
The self-cleavage of the first is lower: 0.248 for the first, 0.782 for the second.

Going from C33A G68U to C33G C64U, the self-cleavage rises from 0.102 to 0.306.

Going from C33U A78G to C32U G35C, the self-cleavage falls from 0.228 to 0.0573.

First: C33U G81U
Second: C33U G68U
The self-cleavage of the first is lower: 0.177 for the first, 0.678 for the second.

Compared with C33U G68C, C33A U79G is lower in self-cleavage: 0.789 for the first, 0.214 for the second.

First: C33A A42U
Second: C32G G81U
The self-cleavage of the first is lower: 0.0314 for the first, 0.0639 for the second.

First: C32U A83G
Second: C32U A83C
The self-cleavage of the first is higher: 0.501 for the first, 0.232 for the second.

First: C32U G67A
Second: C33U A56U
The self-cleavage of the first is higher: 0.857 for the first, 0.758 for the second.

Compared with C32U G39U, C32U C85U is higher in self-cleavage: 0.486 for the first, 0.725 for the second.

Going from C32U C62G to C32U C61G, the self-cleavage rises from 0.727 to 0.791.

Compared with C33G C85G, C33G A70G is lower in self-cleavage: 0.151 for the first, 0.104 for the second.

Going from C33A A87U to C33U C62A, the self-cleavage rises from 0.226 to 0.583.

First: C33U C62G
Second: C33G C48G
The self-cleavage of the first is higher: 0.635 for the first, 0.227 for the second.

C33G U72A and C33G U72G are the same in self-cleavage: 0 for the first, 0 for the second.

Going from C33U G54C to C33U G54A, the self-cleavage rises from 0.623 to 1.05.

Going from C33U G54U to C33G G80A, the self-cleavage falls from 0.901 to 0.0631.

First: C33G G80U
Second: C33A C75A
The self-cleavage of the first is lower: 0.0528 for the first, 0.122 for the second.

Going from C33A C75U to C32U C84A, the self-cleavage rises from 0.0563 to 0.753.

Going from C32U C57U to C32U C57G, the self-cleavage rises from 0.843 to 0.975.

Going from C32U C57A to C33G G67U, the self-cleavage falls from 0.817 to 0.111.

First: C33A A43G
Second: C33A A83U
The self-cleavage of the first is lower: 0 for the first, 0.217 for the second.

Compared with C32U A43G, C32U A43U is lower in self-cleavage: 0.63 for the first, 0.491 for the second.

Compared with C33U C75U, C33U C75G is higher in self-cleavage: 0.0817 for the first, 0.222 for the second.

Going from C33G G52U to C33G A43C, the self-cleavage falls from 0.119 to 0.0723.

Going from C33G A43G to C33U A45U, the self-cleavage rises from 0 to 0.57.

Compared with C32U G74C, C33G G74C is higher in self-cleavage: 0.224 for the first, 0.237 for the second.

First: C32U A71U
Second: C32U A71G
The self-cleavage of the first is lower: 0.565 for the first, 0.903 for the second.

Going from C33U C86A to C32G U47A, the self-cleavage falls from 0.746 to 0.244.

Compared with C33U C36A, C33U C41G is higher in self-cleavage: 0.151 for the first, 0.372 for the second.

Compared with C33A A45G, C33U G76A is higher in self-cleavage: 0.0536 for the first, 0.978 for the second.

Compared with C33G A45C, C32U U47C is higher in self-cleavage: 0.0449 for the first, 0.764 for the second.

Going from C33A A51U to C33G G76U, the self-cleavage falls from 0.373 to 0.116.

Going from C33A G55C to C32U C75G, the self-cleavage falls from 0.181 to 0.17.

Going from C32U G55A to C33A C86G, the self-cleavage falls from 0.967 to 0.277.

Compared with C33A C86U, C33A U60G is lower in self-cleavage: 0.244 for the first, 0.116 for the second.

First: C33U G40U
Second: C33A U47A
The self-cleavage of the first is higher: 0.78 for the first, 0.0378 for the second.

Going from C33A U47C to C32U G52U, the self-cleavage rises from 0.0692 to 0.963.

First: C32U G52A
Second: C33A C41U
The self-cleavage of the first is higher: 0.805 for the first, 0.163 for the second.

Compared with C32U U69C, C32U G34U is lower in self-cleavage: 1.19 for the first, 0.215 for the second.

First: C32U G34C
Second: C32U G34A
The self-cleavage of the first is higher: 0.0875 for the first, 0.0302 for the second.

First: C33A U37A
Second: C33U C61A
The self-cleavage of the first is lower: 0.151 for the first, 0.721 for the second.

First: C33G G54C
Second: C32U U46A
The self-cleavage of the first is lower: 0.143 for the first, 0.573 for the second.

First: C33A A78C
Second: C33U G80A
The self-cleavage of the first is lower: 0.0997 for the first, 0.12 for the second.

First: C33U G80U
Second: C33A C57G
The self-cleavage of the first is lower: 0.179 for the first, 0.332 for the second.

Compared with C33U A87C, C33G G59C is lower in self-cleavage: 0.745 for the first, 0.201 for the second.

Going from C33U G82A to C33A C58G, the self-cleavage rises from 0.302 to 0.332.

Going from C33G A77C to C33G A77G, the self-cleavage rises from 0.115 to 0.138.

Compared with C32U C44G, C33A G82U is lower in self-cleavage: 0.374 for the first, 0.0332 for the second.

First: C33A G82A
Second: C33G G55U
The self-cleavage of the first is lower: 0.102 for the first, 0.204 for the second.

First: C33U C63U
Second: C33U G50A
The self-cleavage of the first is higher: 0.845 for the first, 0.774 for the second.

Compared with C33U G50C, C32G U60G is lower in self-cleavage: 0.786 for the first, 0.196 for the second.

Going from C32G G80C to C33U G39A, the self-cleavage rises from 0 to 0.182.

First: C33A G35A
Second: C32U C58U
The self-cleavage of the first is lower: 0.151 for the first, 0.831 for the second.

First: C33U A71G
Second: C33A G40U
The self-cleavage of the first is higher: 0.886 for the first, 0.23 for the second.

First: C32G U46C
Second: C33U G59U
The self-cleavage of the first is lower: 0.0978 for the first, 0.855 for the second.

Going from C33A U72G to C32U C49A, the self-cleavage rises from 0.122 to 0.683.

First: C33A G80A
Second: C32U A56G
The self-cleavage of the first is lower: 0.123 for the first, 0.872 for the second.

First: C33G G38U
Second: C33G G40C
The self-cleavage of the first is higher: 0.246 for the first, 0.138 for the second.

C33U C64G showed a self-cleavage of 0.736.

Reference: the RNAGym collection of RNA variant scans (doi:10.7554/elife.80360)
